Results as given in article PMC7703596.

Assays:
[1] = tested on: COC(=O)c1ccccc1-c1c2ccc(=N)cc-2oc2cc(N)ccc12; assay: uptake kinetics in HeLa cells, flow cytometry; type: cell-based, Homo sapiens; settings: ATP
[2] = tested on: COC(=O)c1ccccc1-c1c2ccc(=N)cc-2oc2cc(N)ccc12; assay: efflux kinetics in HeLa cells, flow cytometry; type: cell-based, Homo sapiens; settings: ATP

Row | Substance | Km [1] [µM] | Km [2] [µM]
1 | P-glycoprotein (P-gp) 14A mutant (Homo sapiens; F336A/F343A/L332A/L975A/M986A/S979A/V331A/V334A/V338A/V345A/V974A/V977A/V981A/V982A) | 1.69 ± 0.12 | –
2 | P-glycoprotein (P-gp) (Homo sapiens) | – | 2.98 ± 0.51
